This is an account of results in publication PMC8868134 (Antibiotics, 2022).

In this experiment the target is T1, MexB (RND inner membrane transporter) (Pseudomonas aeruginosa, UniProt P52002 1-1046).
T1 sequence: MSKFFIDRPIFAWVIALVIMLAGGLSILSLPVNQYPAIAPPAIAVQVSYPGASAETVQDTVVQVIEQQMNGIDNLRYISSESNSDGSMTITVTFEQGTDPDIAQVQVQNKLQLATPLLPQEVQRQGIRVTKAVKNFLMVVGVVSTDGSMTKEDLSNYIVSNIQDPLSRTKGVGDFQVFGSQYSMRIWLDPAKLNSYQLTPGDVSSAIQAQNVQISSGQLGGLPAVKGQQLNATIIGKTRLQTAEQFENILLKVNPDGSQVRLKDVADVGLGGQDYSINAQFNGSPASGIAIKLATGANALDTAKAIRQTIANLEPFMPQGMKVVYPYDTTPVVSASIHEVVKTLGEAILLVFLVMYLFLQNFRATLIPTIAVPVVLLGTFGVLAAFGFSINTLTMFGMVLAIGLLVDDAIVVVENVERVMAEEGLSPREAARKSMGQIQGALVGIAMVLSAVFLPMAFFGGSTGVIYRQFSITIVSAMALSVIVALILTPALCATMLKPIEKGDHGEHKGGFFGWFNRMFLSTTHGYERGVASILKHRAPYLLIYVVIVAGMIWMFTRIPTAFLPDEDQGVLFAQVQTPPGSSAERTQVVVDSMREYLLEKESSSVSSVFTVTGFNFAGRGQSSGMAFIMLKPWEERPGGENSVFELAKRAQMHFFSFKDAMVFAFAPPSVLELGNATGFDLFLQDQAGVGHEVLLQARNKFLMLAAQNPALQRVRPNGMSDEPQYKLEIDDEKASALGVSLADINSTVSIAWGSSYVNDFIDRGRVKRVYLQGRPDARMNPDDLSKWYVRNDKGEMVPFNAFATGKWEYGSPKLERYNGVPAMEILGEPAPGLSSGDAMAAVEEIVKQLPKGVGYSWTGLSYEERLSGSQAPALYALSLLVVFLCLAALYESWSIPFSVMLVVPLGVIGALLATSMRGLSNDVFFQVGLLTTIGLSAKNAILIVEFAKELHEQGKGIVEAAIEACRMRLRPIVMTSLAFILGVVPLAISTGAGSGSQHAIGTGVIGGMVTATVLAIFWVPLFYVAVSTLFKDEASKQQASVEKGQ
Kind of experiment: BLI. (BLI is a label-free optical method that tracks binding on a fibre tip over time.)

B1: MexA wild type (periplasmic adaptor protein of MexA-MexB-OprM) (natural protein)
chain: CGKSEAPPPAQTPEVGIVTLEAQTVTLNTELPGRTNAFRIAEVRPQVNGIILKRLFKEGSDVKAGQQLYQIDPATYEADYQSAQANLASTQEQAQRYKLLVADQAVSKQQYADANAAYLQSKAAVEQARINLRYTKVLSPISGRIGRSAVTEGALVTNGQANAMATVQQLDPIYVDVTQPSTALLRLRRELASGQLERAGDNAAKVSLKLEDGSQYPLEGRLEFSEVSVDEGTGSVTIRAVFPNPNNELLPGMFVHAQLQEGVKQKAILAPQQGVTRDLKGQATALVVNAQNKVELRVIKADRVIGDKWLVTEGLNAGDKIITEGLQFVQPGVEVKTVPAKNVASAQKADAAPAKTDSKG
With B1, the equilibrium dissociation constant (Kd) (usually the constant that tells how readily two partners part at equilibrium) is 23 µM and the koff (in general, a measure of how fast the partners let go of each other) came to 0.0055 s⁻¹.
